B1: Pleckstrin homology domain-containing family S member 1 (Homo sapiens), Q5SXH7-1 (parent)
chain: MAGGKQFTFSYENEVCKQDYFIKSPPSQLFSSVTSWKKRFFILSKAGEKSFSLSYYKDHHHRGSIEIDQNSSVEVGISSQEKMQSVQKMFKCHPDEVMSIRTTNREYFLIGHDREKIKDWVSFMSSFRQDIKATQQNTEEELSLGNKRTLFYSSPLLGPSSTSEAVGSSSPRNGLQDKHLMEQSSPGFRQTHLQDLSEATQDVKEENHYLTPRSVLLELDNIIASSDSGESIETDGPDQVSGRIECHYEPMESYFFKETSHESVDSSKEEPQTLPETQDGDLHLQEQGSGIDWCLSPADVEAQTTNDQKGSASLTVVQLSILINNIPDESQVEKLNVFLSPPDVINYLALTEATGRICVSQWEGPPRLGCIFCHGDHLLAVNDLKPQSLEEVSLFLTRSIQKEKLKLTIGRIPNSETFHAASCMCPSKCQSAAPSQLDKPRLNRAPKRSPAIKKSQQKGARE
B2: Tetraspanin-2 (Homo sapiens), O60636 (parent)
chain: MGRFRGGLRCIKYLLLGFNLLFWLAGSAVIAFGLWFRFGGAIKELSSEDKSPEYFYVGLYVLVGAGALMMAVGFFGCCGAMRESQCVLGSFFTCLLVIFAAEVTTGVFAFIGKGVAIRHVQTMYEEAYNDYLKDRGKGNGTLITFHSTFQCCGKESSEQVQPTCPKELLGHKNCIDEIETIISVKLQLIGIVGIGIAGLTIFGMIFSMVLCCAIRNSRDVI

Variants of: B1
Details: with p55g_human PIK3R3, Q92569

| Variant | effect of a mutation on the interaction |
| --- | --- |
| D68F | disrupting interaction |

Variants of: B2
Details: with grb2_human GRB2, P62993
grb2_human GRB2, P62993, sequence (P62993 whole entry, looked up): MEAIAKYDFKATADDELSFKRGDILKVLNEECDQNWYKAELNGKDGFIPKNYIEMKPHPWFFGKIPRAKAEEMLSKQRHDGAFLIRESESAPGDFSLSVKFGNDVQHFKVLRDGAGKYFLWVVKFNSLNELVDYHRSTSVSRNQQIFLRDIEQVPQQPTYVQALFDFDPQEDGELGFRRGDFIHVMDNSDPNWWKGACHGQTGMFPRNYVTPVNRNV

| Variant | effect of a mutation on the interaction |
| --- | --- |
| MGRFRGGLRCIKYLLLGFNLLFWLAGSAVIAFGLWFRFGGAIKELSSEDKSPEYFYVGLYVLVGAGALMMAVGFFGCCGAMRESQCVLGSFFTCLLVIFAAEVTTGVFAFIGKGVAIRHVQTMFEEAYNDYLKDRGKGNGTLITFHSTFQCCGKESSEQVQPTCPKELLGHKNCIDEIETIISVKLQLIGIVGIGIAGLTIFGMIFSMVLCCAIRNSRDVI [Y124F] | disrupting interaction |

Variants of: B2
Details: with p55g_human PIK3R3, Q92569

| Variant | effect of a mutation on the interaction |
| --- | --- |
| MGRFRGGLRCIKYLLLGFNLLFWLAGSAVIAFGLWFRFGGAIKELSSEDKSPEYFYVGLYVLVGAGALMMAVGFFGCCGAMRESQCVLGSFFTCLLVIFAAEVTTGVFAFIGKGVAIRHVQTMFEEAYNDYLKDRGKGNGTLITFHSTFQCCGKESSEQVQPTCPKELLGHKNCIDEIETIISVKLQLIGIVGIGIAGLTIFGMIFSMVLCCAIRNSRDVI [Y124F] | disrupting interaction |

Source: IntAct's records for PubMed 25814554
